Experimental data taken from publication PMC11294453, “Cryo-EM structure of a conjugative type IV secretion system suggests a molecular switch regulating pilus biogenesis” (The EMBO Journal, 2024).

B1: TrwF/VirB9 (natural protein)
chain: LDVPSSSRYDHRIRYVTYNPADVVQVDTVLGVATHIMLEEGEQYLTHAFGIPKPMPLPGRAGIFLSSRTAELANTNLIVVTDRRSYKFRLQMRNDRNGAMYELAFRYPDTQARQTREANARAAVEAAFEQRVGAYYNLKYMMSGDKDIAPVNAWDDGRFTYFKFSANADLPSIYFVDAEGNESLVPRTTVGSSNNIIAVHKVNPKWMIRLGNRALAIFNEAYDPNGVPNDTGTASPAVRRVNKGGN
notes: TrwF, the VirB9 homologue of the type IV secretion system encoded by the conjugative plasmid R388; NTD in the I-layer, CTD in the O-layer, linker helix residues 128 to 150; also called TrwF/VirB9NTD; VirB9CTD; source: R388 T4SS complexes expressed and purified from membranes as described previously (Mace et al, 2022)
B2: TrwI/VirB6 (natural protein)
chain: MAFELFTPLFNKIDQTTATYVTDISSRAIAAITPVVSVGLTLGFITYGWLIIRGAVEMPVAEFLNRCLRIGIIVSIALAGGLYQGEIANAITTVPDELASALLGNPTEGASAAALVDQSAQQGFDRASEAFEEAGFFSSDGLLYGLFGIIIPAGYGPAGAIGGAFLLLAKIALALLAGLGPLFILALIWQPTHRFFDQWAQQVLNYGLLIVLFAAVFGLLMQIFGSYMADLRFDGAQNVAYAIGGSVILSIVSIVLLMQLPSIASGLAGGIGLGYMWELRSMRSGAGAAMRGGRAMARGARAAPGAARGAAVGAANMAKTVATGGAGVARAAAGYFRGRKAG
notes: TrwI, the VirB6 homologue of the type IV secretion system encoded by the conjugative plasmid R388; TM region (α1 and α2) is residues 30-82; also called TrwI/VirB6TM; VirB6_(α1α2TM); source: R388 T4SS complexes expressed and purified from membranes as described previously (Mace et al, 2022)
B3: TrwH/VirB7 (natural protein, UniProt O50334 17-47, looked up)
chain: CASAPKPKQPSDFNREPVNKTVPVEIQRGAL
notes: TrwH, the VirB7 homologue of the type IV secretion system encoded by the conjugative plasmid R388; source: R388 T4SS complexes expressed and purified from membranes as described previously (Mace et al, 2022)
B4: TrwK/VirB4 (enzyme)
chain: MGAIESRKLLASETPVGQFIPYSHHVTDTIISTKNAEYLSVWKIDGRSHQSASEADVFQWIRELNNTLRGISSANLSLWTHIVRRRVYEYPDAEFDNVFCRQLDEKYRESFTGYNLMVNDLYLTVVYRPVSDKVLSFFAKRERETPDQKKHRQESCIKALEDINRTLGQSFKRYGAELLSVYEKGGHAFSAPLEFLARLVNGEHIPMPICRDRFSDYMAVNRPMFSKWGEVGELRSLTGLRRFGMLEIREYDDATEPGQLNVLLESDYEFVLTHSFSVLSRPAAKEYLQRHQKNLIDARDVATDQIEEIDEALNQLISGHFVMGEHHCTLTVYGETVQQVRDNLAHASAAMLDVAVLPKPVDLALEAGYWAQLPANWQWRPRPAPITSLNFLSFSPFHNFMSGKPTGNPWGPAVTILKTVSGTPLYFNFHASKEEEDATDKRLLGNTMLIGQSSSGKTVLLGFLLAQAQKFKPTIVAFDKDRGMEISIRAMGGRYLPLKTGEPSGFNPFQLPPTHANLIFLKQFVKKLAAAGGEVTHRDEEEIDQAITAMMSDSIDKSLRRLSLLLQFLPNPRSDDMDARPTVHARLVKWCEGGDYGWLFDNPTDALDLSTHQIYGFDITEFLDNPEARTPVMMYLLYRTESMIDGRRFMYVFDEFWKPLQDEYFEDLAKNKQKTIRKQNGIFVFATQEPSDALESNIAKTLIQQCATYIFLANPKADYEDYTQGFKLTDSEFELVRGLGEFSRRFLIKQGDQSALAEMNLGKFRTIVDGETVERDFDDELLVLSGTPDNAEIAESIIAEVGDDPAVWLPIFLDRVKAERSDV
notes: TrwK, the VirB4 ATPase of the type IV secretion system encoded by the conjugative plasmid R388; also called TrwK/VirB4_(central); TrwK/VirB4_(outside); source: R388 T4SS complexes expressed and purified from membranes as described previously (Mace et al, 2022)
B5: TrwE/VirB10 (natural protein)
chain: MFGRKKGDVIDAGAELERAEQERIEGEYGASELASERRPHTPGARTLLMVLLCVIAVVLVTLSYKAYKVRGVVEDDDAQPQQVVRQVIPGYTPRPIRPEPENVPEPPQPTTSVPAIQPAPVTQPVRPQPTGPREKTPYELARERMLRSGLTAGSGGGEDLPRPQGGDVPAGGLMGGGGGGGELAEKLQPMRLSGSSAGRLGNRDMLITQGTQLDCVLETRLVTTQPGMTTCHLTRDVYSTSGRVVLLDRGSKVVGFYQGGLRQGQARIFVQWSRIETPSGVVINLDSPGTGPLGEAGLGGWIDRHFWERFGGAIMISLIGDLGDWASRQGSRQGNNSIQFSNTANGVESAAAEALRNSINIPPTLYKNQGERVNILVARDLDFSDVYSLESIPTK
notes: TrwE, the VirB10 homologue of the type IV secretion system encoded by the conjugative plasmid R388; residues 21-69, 83-101, 135-153 and 177-395 are described in the structures; the first 20 residues are invisible; also called TrwE/VirB10NTD; VirB10NT; source: R388 T4SS complexes expressed and purified from membranes as described previously (Mace et al, 2022)
B6: TrwM/VirB3 (natural protein)
chain: MKPPQQQHEAFPLFKGATRLPTILGEPMIPLMAMVMGVAVIALTVSIWWWALVPPLWFIMAQITKNDDKAFRIWWLWIDTKFRNRNKGFWGASSYSPANYRKRR
notes: TrwM, the VirB3 homologue of the type IV secretion system encoded by the conjugative plasmid R388; source: R388 T4SS complexes expressed and purified from membranes as described previously (Mace et al, 2022)
B7: TrwG/VirB8 (natural protein)
chain: MSKKQPKPVKAEQLKSYYEESRGLERDLIGEFVKSRKTAWRVATASGLFGLLGMVCGIVGFSQPAPAPLVLRVDNATGAVDVVTTLREHESSYGEVVDTYWLNQYVLNREAYDYNTIQMNYDTTALLSAPAVQQDYYKLFDGSNARDRVLGNKARITVRVRSIQPNGRGQATVRFTTQQHNSNGTVERPQHQIATIGYTYIGAPMRSSDRLLNPLGFQVTSYRADPEILNN
notes: TrwG, the VirB8 homologue of the type IV secretion system encoded by the conjugative plasmid R388; also called TrwG/VirB8_(peri); TrwG/VirB8_(tail); source: R388 T4SS complexes expressed and purified from membranes as described previously (Mace et al, 2022)
B8: TrwJ/VirB5 (natural protein, UniProt O50331 23-226, looked up)
chain: QGIPVFDGTRALDFVQQFARMKEQLDTAKDQLAEAQRMYEAVTGGRGLGDLMRNAQLREYLPDDLRTVYDSANGGGYSGISGSINDILRDERLNGSVADMRRSIEERSRTARTTDKAVGCGPTKGHSNASRRLKDEISRTQDQKAIEELQARIAGEQAAIQNETTKLQMIAQLRQAEQALISEQRRERNMPILSSGNQGMPTIQ
notes: TrwJ, the VirB5 homologue of the type IV secretion system encoded by the conjugative plasmid R388; residues Gln23-Ala33 newly built; source: R388 T4SS complexes expressed and purified from membranes as described previously (Mace et al, 2022)

Columns and labels:
[1] = target: B5; test: cryo-EM structure; R388 T4SS complex purified from membranes; OMCC maps: O-layer with C14 symmetry (2.46 Å), I-layer with C16 symmetry (2.69 Å), OMCC conformations A, B and C without symmetry; settings: both partners purified
[2] = target: B5; test: cryo-EM structure; R388 T4SS complex purified from membranes; extended IMC protomer map without symmetry, 3.83 Å, with the Stalk-Arches-IMC map at 4.33 Å; settings: both partners purified
[3] = target: B1; test: cryo-EM structure; R388 T4SS complex purified from membranes; OMCC maps: O-layer with C14 symmetry (2.46 Å), I-layer with C16 symmetry (2.69 Å), OMCC conformations A, B and C without symmetry; settings: both partners purified
[4] = target: the molecule itself; test: cryo-EM structure; R388 T4SS complex purified from membranes; extended IMC protomer map without symmetry, 3.83 Å, with the Stalk-Arches-IMC map at 4.33 Å
[5] = target: B4; test: as above; settings: both partners purified
[6] = target: the molecule itself; test: cryo-EM structure; R388 T4SS complex purified from membranes; OMCC maps: O-layer with C14 symmetry (2.46 Å), I-layer with C16 symmetry (2.69 Å), OMCC conformations A, B and C without symmetry
[7] = target: B5; test: cryo-EM structure; R388 T4SS complex purified from membranes; Arches map without symmetry, 6.22 Å; secondary structures only, no side chains; settings: both partners purified
[8] = target: the molecule itself; test: as above
[9] = target: B2; test: cryo-EM structure; R388 T4SS complex purified from membranes; Stalk map with C5 symmetry applied, 2.97 Å; settings: both partners purified

**Q.** Does B1 bind [1]?
**A.** Result: binds

**Q.** Does B2 bind [2]?
**A.** Result: binds

**Q.** Does B3 bind [1]?
**A.** Result: binds

**Q.** Does B3 bind [3]?
**A.** Result: binds

**Q.** Does B4 bind [4]?
**A.** Result: binds

**Q.** Does B5 bind [5]?
**A.** Result: binds

**Q.** Does B5 bind [6]?
**A.** Result: binds

**Q.** Does B6 bind [2]?
**A.** Result: binds

**Q.** Does B6 bind [5]?
**A.** Result: binds

**Q.** Does B7 bind [7]?
**A.** Result: binds

**Q.** What about the “stoichiometry N” value [8] of the same binder?
**A.** The value was 24 subunits.

**Q.** Does B7 bind [5]?
**A.** Result: binds

**Q.** Does B8 bind [9]?
**A.** Result: binds
